Target: His-tagged proaerolysin (Aeromonas hydrophila) (UniProt P09167)
Test: SEC

stoichiometry N: 2
Substance: His-tagged proaerolysin (from UniProt P09167 24-445) (natural protein)

Source: doi:10.1101/2024.09.19.613822
